Assay results published in patent US20170291939A1 (Novartis, published 2017).

Legend:
[1] = target: T1, human IL-17A (construct not specified) (human, UniProt Q16552 24-155, limits assumed); assay: cell-based or functional assay
T1 sequence: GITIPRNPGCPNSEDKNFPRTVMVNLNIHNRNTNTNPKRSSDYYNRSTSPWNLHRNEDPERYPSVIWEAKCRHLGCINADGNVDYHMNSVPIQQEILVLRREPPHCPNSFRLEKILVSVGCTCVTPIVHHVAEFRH

[2] = target: T2, recombinant huIL-17A (SEQ ID NO: 76) (human, UniProt Q16552 24-155, limits assumed); assay: cell-based or functional assay
T2 sequence: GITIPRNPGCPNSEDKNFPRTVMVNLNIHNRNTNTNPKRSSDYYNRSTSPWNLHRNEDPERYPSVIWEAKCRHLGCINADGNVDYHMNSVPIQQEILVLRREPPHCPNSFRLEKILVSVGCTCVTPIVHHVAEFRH

[3] = target: T2, recombinant huIL-17A (SEQ ID NO: 76); assay: cell-based or functional assay; remark: listed apart in the source
recombinant mIL-17A = target: T3, recombinant mIL-17A (mouse, UniProt Q62386 26-158); assay: cell-based or functional assay
T3 sequence: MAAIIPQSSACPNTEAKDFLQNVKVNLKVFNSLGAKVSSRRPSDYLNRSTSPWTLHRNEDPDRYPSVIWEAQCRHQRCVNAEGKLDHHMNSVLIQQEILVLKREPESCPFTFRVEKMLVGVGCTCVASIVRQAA

cynomolgus IL-17A = target: T4, cynomolgus IL-17A (cynomolgus monkey, UniProt Q16552 24-155 (human entry), limits assumed); assay: affinity determination (Tables 18-21)
T4 construct: also called cynoIL-17A; cyno IL-17A
T4 chain: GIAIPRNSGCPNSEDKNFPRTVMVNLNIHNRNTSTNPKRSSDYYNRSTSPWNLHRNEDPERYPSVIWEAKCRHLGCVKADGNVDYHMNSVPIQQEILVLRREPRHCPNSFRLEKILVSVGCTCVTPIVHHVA

rat IL-17A = target: T5, rat IL-17A (rat, UniProt Q61453 18-150); assay: affinity determination (Tables 18-21)
T5 construct: also called rIL-17A; rratIL-17A
T5 sequence: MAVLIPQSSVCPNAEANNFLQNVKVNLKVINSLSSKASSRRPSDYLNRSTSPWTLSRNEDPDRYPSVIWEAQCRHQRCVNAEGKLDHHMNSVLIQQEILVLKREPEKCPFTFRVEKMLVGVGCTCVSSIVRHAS

B1: XAB2 (antibody, human IgG1, kappa, V domains shown)
VH: EVQLVESGGDLVQPGGSLRLSCAASGFTFSSYWMSWVRQAPGKGLEWVANIKQDGSEKYYVDSVKGRFTISRDNAKNSLYLQMNSLRAEDTAVYYCARDRGSLYYWGQGTLVTVSS
VL: AIQLTQSPSSLSASVGDRVTITCRPSQVIISALAWYQQKPGKAPKLLIYDASSLEQGVPSRFSGSVSGTDFTLTISSLQPEDFATYYCQQFDSYPLTFGGGTKVEIKR
notes: full IgG
[1]
  EC50, T = 0 weeks: 0.045 µg/mL
  EC50, T = 4 weeks at pH 8, 40° C. (forced deamidation): 47 ng/ml
[2]
  IC50, huIL-6 secretion by BJ cells; rhuIL-17A (0.5 nM): 0.64 nM
[3]
  IC50, huGROα secretion by BJ cells; rhuIL-17A (0.5 nM): 0.4 nM
Recombinant mIL-17A
  IC50, KC secretion by CMT-93 cells; mIL-17A (0.15 nM): 20.9 nM
Cynomolgus IL-17A
  binding result: binds
Rat IL-17A
  binding result: binds
